This passage reports Km results from article PMC10659578, “Mechanism of stepwise electron transfer in six-transmembrane epithelial antigen of the prostate (STEAP) 1 and 2” (eLife, 2023).

This series deals with T1, Cc1cc2c(cc1C)N(C[C@H](O)[C@H](O)[C@H](O)COP(=O)(O)OP(=O)(O)OC[C@H]1O[C@@H](n3cnc4c(N)ncnc43)[C@H](O)[C@@H]1O)c1[nH]c(=O)[nH]c(=O)c1N2.
T1 construct: full-length, expressed and purified as in Kim et al. 2016; detergent-solubilised
Nature of the series: rapid-scan stopped-flow heme reduction (A427), kobs vs [FADH-]. The format is biochemical, Oryctolagus cuniculus. To be noted: fast phase, single-turnover heme reduction, anaerobic, 20 mM HEPES pH 7.5, 150 mM NaCl, 0.1% LMNG.

Sequence of STEAP1 (Oryctolagus cuniculus; L230G) (chain, as listed by the source L230G): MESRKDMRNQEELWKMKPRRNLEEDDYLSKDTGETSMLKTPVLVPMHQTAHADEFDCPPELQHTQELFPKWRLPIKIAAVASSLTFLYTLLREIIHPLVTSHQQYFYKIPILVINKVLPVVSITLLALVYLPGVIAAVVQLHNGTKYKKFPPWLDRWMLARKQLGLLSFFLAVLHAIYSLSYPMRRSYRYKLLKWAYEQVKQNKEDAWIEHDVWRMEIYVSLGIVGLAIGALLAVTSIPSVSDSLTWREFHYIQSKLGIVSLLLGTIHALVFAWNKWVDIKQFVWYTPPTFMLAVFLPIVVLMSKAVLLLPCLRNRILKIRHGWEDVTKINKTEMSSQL

As to STEAP1 (Oryctolagus cuniculus), where the note is “60% of change”, the Km turned out to be 4.7 µM.
Take STEAP1 (Oryctolagus cuniculus; L230G): the Km (79% of change) came to 3.6 µM.
